Measurements from patent US6942852.

Molecular target: CCR5 chemokine receptor (human) (UniProt P51681)
Assay: cell-based or functional assay

Sequence of UniProt P51681 (P51681 whole entry): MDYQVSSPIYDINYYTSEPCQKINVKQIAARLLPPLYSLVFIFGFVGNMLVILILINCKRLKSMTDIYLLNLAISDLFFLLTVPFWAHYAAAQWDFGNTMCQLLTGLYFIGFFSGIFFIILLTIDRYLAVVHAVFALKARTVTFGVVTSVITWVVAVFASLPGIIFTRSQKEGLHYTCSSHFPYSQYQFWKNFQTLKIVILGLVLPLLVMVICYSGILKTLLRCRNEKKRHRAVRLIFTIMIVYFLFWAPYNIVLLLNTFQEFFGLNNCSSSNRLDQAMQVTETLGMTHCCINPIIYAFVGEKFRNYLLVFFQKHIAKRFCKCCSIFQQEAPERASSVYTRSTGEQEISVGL

Substance | inhibition of replication of dual-tropic HIV-1 89.6 in vitro (p24 ELISA) | inhibition of replication of primary dual-tropic HIV-1 isolates from patients in vitro (p24 ELISA) | potency at preventing infection of PBMC with R5 HIV-1 SF162, relative to AOP-RANTES
aminooxypentane-RANTES (2-68) (from UniProt P13501 25-91) (ligand) | 50% | 80 to 90% | –
n-nonanoyl-RANTES (2-68) (from UniProt P13501 25-91) (ligand) | – | – | 3 fold
